# From paper doi:10.1101/2024.01.05.574350, “Heparan sulfate selectively inhibits the collagenase activity of cathepsin K” (bioRxiv, 2024)
# T1: mature cathepsin K (murine) (murine, UniProt P55097 115-329)
# T1 construct: cathepsin K, murine; catalytic Cys25; 22 kDa as printed; No tag is named; also called CtsK; mature CtsK; source: 293-Freestyle cells, transient expression of pro-CtsK
# T1 sequence (looked up): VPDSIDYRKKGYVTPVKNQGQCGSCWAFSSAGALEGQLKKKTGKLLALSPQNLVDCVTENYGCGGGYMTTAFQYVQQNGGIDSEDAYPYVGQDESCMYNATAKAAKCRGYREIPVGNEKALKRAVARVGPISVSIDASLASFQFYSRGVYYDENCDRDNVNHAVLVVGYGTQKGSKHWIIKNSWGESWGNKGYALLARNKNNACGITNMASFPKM
# Target: T1, mature cathepsin K (murine)
# Experiment: SEC; CtsK and Cst3 without HS, Superdex200 column
# Conditions: both partners purified
binder,measurement,value
"Cystatin C (natural protein, UniProt P21460 21-140, looked up, Cystatin C (Cst3), 13 kDa as printed; The printed residues (Pro7, Met9, Leu10, Gly11, Ala12, Leu56-Gly59, Pro105-Lys107) fit mature mouse cystatin C as I recall it, not the human protein; human cystatin C (PDB 3GAX) was only the search model for molecular replacement; also called Cst3; Cts3) ATPKQGPRMLGAPEEADANEEGVRRALDFAVSEYNKGSNDAYHSRAIQVVRARKQLVAGVNYFLDVEMGRTTCTKSQTNLTDCPFHDQPHLMRKALCSFQIYSVPWKGTHSLTKFSCKNA",stoichiometry N,1
